Data: US20140378382A1 (WISCONSIN ALUMNI RESEARCH FOUNDATION, published 2014)
Like-named read-outs stand apart in the source and are kept apart here. Non-standard residues stand in square brackets, D forms with d. Primed or numbered codes have the meaning given here. No end group written: not given here. APC = aminopyrrolidine carboxylic acid (2-aminopyrrolidine-4-carboxylic acid); ACPC″ = 2-aminocyclopentane carboxylic acid (X); ACPC = 2-aminocyclopentane carboxylic acid; β3hS = N[C@@H](CO)CC(=O)O; Aib = CC(C)(N)C(=O)O

Tests used:
[1] = molecular target: T1, human parathyroid hormone receptor 1, wild-type (hPTHR-1) (human, UniProt Q03431 27-593); assay: cell-based or functional assay
T1 sequence (looked up): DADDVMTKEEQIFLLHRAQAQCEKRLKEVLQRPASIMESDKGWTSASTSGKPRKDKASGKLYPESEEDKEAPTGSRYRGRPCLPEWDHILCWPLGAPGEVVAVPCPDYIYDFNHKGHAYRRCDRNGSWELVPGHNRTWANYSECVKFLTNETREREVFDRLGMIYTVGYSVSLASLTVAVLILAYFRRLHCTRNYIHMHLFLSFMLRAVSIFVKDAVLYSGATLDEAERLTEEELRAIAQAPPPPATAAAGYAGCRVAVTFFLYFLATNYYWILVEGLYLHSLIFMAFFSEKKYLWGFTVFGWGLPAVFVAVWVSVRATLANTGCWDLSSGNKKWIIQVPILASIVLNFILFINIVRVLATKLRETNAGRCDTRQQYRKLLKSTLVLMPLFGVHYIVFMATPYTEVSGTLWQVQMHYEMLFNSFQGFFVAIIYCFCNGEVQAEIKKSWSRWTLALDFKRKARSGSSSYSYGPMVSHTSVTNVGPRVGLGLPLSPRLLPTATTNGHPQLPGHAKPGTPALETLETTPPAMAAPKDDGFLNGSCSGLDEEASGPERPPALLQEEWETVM

[2] = molecular target: parathyroid hormone receptor-2 (PTHR-2); assay: cell-based or functional assay
Sequence of parathyroid hormone receptor-2 (PTHR-2) (P49190 whole entry): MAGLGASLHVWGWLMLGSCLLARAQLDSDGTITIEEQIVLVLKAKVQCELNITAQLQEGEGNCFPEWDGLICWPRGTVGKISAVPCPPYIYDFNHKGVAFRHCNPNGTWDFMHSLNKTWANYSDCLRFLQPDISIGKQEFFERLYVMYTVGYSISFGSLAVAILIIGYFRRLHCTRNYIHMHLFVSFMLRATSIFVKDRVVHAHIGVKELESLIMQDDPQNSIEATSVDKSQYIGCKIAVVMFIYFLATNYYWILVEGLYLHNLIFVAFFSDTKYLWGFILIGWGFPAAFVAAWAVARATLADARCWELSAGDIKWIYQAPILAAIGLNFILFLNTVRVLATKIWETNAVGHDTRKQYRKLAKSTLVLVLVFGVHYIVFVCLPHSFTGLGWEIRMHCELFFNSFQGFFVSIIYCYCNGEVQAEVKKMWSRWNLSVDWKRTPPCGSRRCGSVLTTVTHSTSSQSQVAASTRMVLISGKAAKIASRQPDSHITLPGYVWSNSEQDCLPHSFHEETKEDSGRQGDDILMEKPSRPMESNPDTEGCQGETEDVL

[3] = molecular target: T2, PTHR-1 (species and cells not stated for the assay) (Homo sapiens (Human), UniProt Q03431 27-593); assay: cell-based or functional assay
T2 sequence: T1 sequence (looked up)

[4] = molecular target: T2, PTHR-1 (species and cells not stated …); assay: cell-based or functional assay; remark: listed apart in the source
[5] = molecular target: T3, rat parathyroid hormone receptor 1, wild-type (rPTHR-1) (rat, UniProt P25961 27-591); assay: R0 state; 125I-PTH(1-34) displacement; COS-7 membranes, rPTHR-1, GTPγS
T3 construct: whole, on cells; also called rat PTHR-1; rPTHR-1-WT
T3 sequence (looked up): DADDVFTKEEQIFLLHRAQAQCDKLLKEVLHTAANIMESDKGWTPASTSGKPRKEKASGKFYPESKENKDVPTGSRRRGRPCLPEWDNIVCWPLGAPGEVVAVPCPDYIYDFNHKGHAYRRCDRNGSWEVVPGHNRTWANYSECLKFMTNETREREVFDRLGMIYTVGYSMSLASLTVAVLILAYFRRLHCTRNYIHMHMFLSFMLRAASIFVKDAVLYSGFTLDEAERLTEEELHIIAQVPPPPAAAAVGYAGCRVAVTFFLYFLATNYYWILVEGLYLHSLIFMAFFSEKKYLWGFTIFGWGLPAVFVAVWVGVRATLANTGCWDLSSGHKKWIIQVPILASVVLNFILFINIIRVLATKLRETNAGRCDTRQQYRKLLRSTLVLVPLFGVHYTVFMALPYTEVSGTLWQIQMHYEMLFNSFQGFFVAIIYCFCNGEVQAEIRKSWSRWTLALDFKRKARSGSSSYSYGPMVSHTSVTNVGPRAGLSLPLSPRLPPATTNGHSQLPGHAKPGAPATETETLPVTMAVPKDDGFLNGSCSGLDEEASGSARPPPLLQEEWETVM
Description: (§1) Binding inhibition constants are expressed as the -log (IC50) and corresponding nanoMolar (nM) values. Values are means (±SEM) of the number of experiments shown (n), each performed in duplicate.

[6] = molecular target: T3, rat parathyroid hormone receptor 1, …; assay: cell-based or functional assay
[7] = molecular target: T1, human parathyroid hormone receptor 1, …; assay: cell-based or functional assay; remark: listed apart in the source
[8] = molecular target: T1, human parathyroid hormone receptor 1, …; assay: cell-based or functional assay; remark: listed apart in the source
[9] = molecular target: T1, human parathyroid hormone receptor 1, …; assay: R0 state; 125I-PTH(1-34) displacement; COS-7 membranes, hPTHR-1, GTPγS
Description: (§2) ^aValues are means of n ≧4 experiments, each performed in duplicate.

[10] = molecular target: T1, human parathyroid hormone receptor 1, …; assay: as above; remark: listed apart in the source
Description: (§3) FIGS. 6A, 6B, 6C, 6D, 6E, and 6F constitute a series of graphs depicting binding of various analogs to the R⁰ and RG forms of human PTHR-1 (hPTHR-1). […] Data are means (±SEM) of n≧4 experiments, each performed in duplicate.

[11] = molecular target: T3, rat parathyroid hormone receptor 1, …; assay: RG state; 125I-M-PTH(1-15) displacement; COS-7 membranes, rPTHR-1 + Gαs mutant
Description: as §1

[12] = molecular target: T1, human parathyroid hormone receptor 1, …; assay: ratio of R0 IC50 to RG IC50, hPTHR-1
[13] = molecular target: T3, rat parathyroid hormone receptor 1, …; assay: ratio of R0 IC50 to RG IC50, rPTHR-1
Description: as §1

[14] = molecular target: T1, human parathyroid hormone receptor 1, …; assay: RG state; 125I-M-PTH(1-15) displacement; COS-7 membranes, hPTHR-1 + Gαs mutant
Description: as §2

[15] = molecular target: T1, human parathyroid hormone receptor 1, …; assay: as above; remark: listed apart in the source
Description: as §3

[16] = molecular target: T3, rat parathyroid hormone receptor 1, …; assay: cell-based or functional assay; remark: listed apart in the source
[17] = molecular target: T3, rat parathyroid hormone receptor 1, …; assay: RG state; 125I-M-PTH(1-15) displacement; COS-7 membranes, rPTHR-1 + Gαs mutant; remark: listed apart in the source
Description: as §1

[18] = molecular target: T3, rat parathyroid hormone receptor 1, …; assay: cell-based or functional assay; parameters: AUC-on / AUC-washout: unit not given beside the values
[19] = molecular target: T3, rat parathyroid hormone receptor 1, …; assay: R0 state; 125I-PTH(1-34) displacement; COS-7 membranes, rPTHR-1, GTPγS; remark: listed apart in the source
Description: as §1

[20] = molecular target: T1, human parathyroid hormone receptor 1, …; assay: R0 binding, GP2.3 membranes (human PTHR-1); tracer not stated here
delNT PTHR1 = molecular target: T4, delNT PTHR1 (human, UniProt Q03431 27-593); assay: cell-based or functional assay
T4 sequence (looked up): T1 sequence (looked up)

[21] = molecular target: T1, human parathyroid hormone receptor 1, …; assay: cell-based or functional assay; remark: listed apart in the source
[22] = molecular target: T2, PTHR-1 (species and cells not stated …); assay: cell-based or functional assay; remark: listed apart in the source

## [ACPC]VSE[ACPC]Q[ACPC]LHDKGK[ACPC]IQD[ACPC]RRR[APC]FLH[APC]LIA[ACPC]IHT[ACPC]-NH2 [CycD6 hPTHrP(1-34) ACPC(1,5,7)]
[1]
  cAMP EC50: 1.08 nM

## [ACPC″]VSE[ACPC″]Q[ACPC″]MHNLGK[ACPC″]LNS[ACPC″]ERV[APC]WLR[APC]KLQ[ACPC″]VHN[ACPC″]-NH2 [FcycD6_ACPC(1,5,7)]
[2]
  cAMP response PTH2R/PTH1R: 45 ratio
[3]
  Fold PTH: 234 fold
  cAMP EC50: 19.1 nM
[4]
  cAMP EC50: 25.9 nM

B1: B3 (peptide)
peptide: SVSEIQLMHNLGKHLNSMERVEWLRKKLQDVQNF-NH2
modifications: not fully specified (residue 32); printed as SVSEIQLMHNLGKHLNSMERVEWLRKKLQDVQNF-NH2; also: three β3 residues, positions not given here in text
notes: also called α/β-peptide B3
[5]
  -log (IC50): 6.95
  IC50: 111 nM
[6]
  cAMP EC50: 0.55 nM
  cAMP Max: 69 cps × 10-3
  cAMP pEC50: 9.26
[7]
  cAMP EC50: 0.11 nM
  cAMP Max: 1.08 relative to PTH(1-34)
[8]
  cAMP EC50: 0.11 nM
  cAMP Max: 234 cps × 10^-3
  cAMP pEC50: 9.94
[9]
  IC50: 80 nM
[10]
  -log (IC50): 7.1
  IC50: 80 nM
[11]
  -log (IC50): 8.07
  IC50: 8.6 nM

B2: D7 (peptide)
peptide: SVSEIQLMHNLGKWLNSMERVEWLRKKLQDVHNF-NH2
modifications: not fully specified (residue 14); printed as SVSEIQLMHNLGKWLNSMERVEWLRKKLQDVHNF-NH2; also: seven β3 residues, positions not given here in text
notes: also called α/β-peptide D7
[5]
  -log (IC50): 7.83
  IC50: 14.8 nM
[6]
  Fold PTH(1-34): 3.89 fold
  cAMP EC50: 1.62 nM
  cAMP Max: 40 cps × 10-3
  cAMP pEC50: 8.79
[12]
  R^0/RG: 15 ratio
[7]
  cAMP EC50: 0.39 nM
  cAMP Max: 0.85 relative to PTH(1-34)
[13]
  R^0/RG: 7 ratio
[8]
  Fold PTH(1-34): 2.26 fold
  cAMP EC50: 0.39 nM
  cAMP Max: 184 cps × 10^-3
  cAMP pEC50: 9.41
[9]
  IC50: 3.5 nM
[10]
  -log (IC50): 8.45
  IC50: 3.5 nM
[11]
  -log (IC50): 8.69
  IC50: 2 nM
[14]
  IC50: 0.24 nM
[15]
  -log (IC50): 9.63
  IC50: 0.24 nM

B3: B5 (peptide)
peptide: SVSEIQLMHNLGKHLNSMERVEWLRKKLQDVQNF-NH2
modifications: not fully specified (residues 20, 24, 28, 32); printed as SVSEIQLMHNLGKHLNSMERVEWLRKKLQDVQNF-NH2; also: five β3 residues, positions not given here in text
notes: also called α/β-peptide B5
[16]
  cAMP EC50: 1.45 nM
  cAMP Max: 0.78 relative to PTH(1-34)
[5]
  -log (IC50): 7.18
  IC50: 65 nM
[6]
  cAMP EC50: 1.45 nM
  cAMP Max: 51 cps × 10-3
  cAMP pEC50: 8.84
[17]
  IC50: 4.2 nM
[18]
  AUC-on: 130000
  AUC-washout: 84000
[7]
  cAMP EC50: 0.11 nM
  cAMP Max: 0.98 relative to PTH(1-34)
[8]
  cAMP EC50: 0.11 nM
  cAMP Max: 212 cps × 10^-3
  cAMP pEC50: 9.97
[9]
  IC50: 19 nM
[19]
  IC50: 65 nM
[10]
  -log (IC50): 7.72
  IC50: 19 nM
[11]
  -log (IC50): 8.37
  IC50: 4.2 nM
[14]
  IC50: 0.086 nM
[15]
  -log (IC50): 10.1
  IC50: 0.086 nM

## [ACPC]VSE[ACPC]Q[ACPC]MHNLGKHLNSMERVEWLRKKLQDVHNF-NH2 [ACPC(1,5,7)]
[2]
  cAMP response PTH2R/PTH1R: 11 ratio
[3]
  Fold PTH: 36.7 fold
  cAMP EC50: 2.99 nM

## [ACPC]VSE[ACPC]Q[ACPC]LHDKGKSIQDLRRRFFLHKLIAEIHTA-NH2 (not fully specified; also: D6 β3 residues, positions not shown (marking lost)) [D6 hPTHrP(1-34) ACPC(1,5,7)]
[1]
  cAMP EC50: 1.03 nM

## [β3hS]V[Aib]EIQ[ACPC″]MHNLGK[ACPC″]LNS[ACPC″]ERV[APC]WLR[APC]KLQ[ACPC″]VHN[ACPC″]-NH2 [FcycD6_β3Ser(1), Aib(3), ACPC (7)]
[20]
  IC50: 1.54 nM
[4]
  cAMP EC50: 0.21 nM

## [β3hS]VSE[ACPC″]Q[ACPC″]MHNLGK[ACPC″]LNS[ACPC″]ERV[APC]WLR[APC]KLQ[ACPC″]VHN[ACPC″]-NH2 [FcycD6_β3Ser(1), ACPC(5,7)]
[20]
  IC50: 89.4 nM
[4]
  cAMP EC50: 0.79 nM

## SVSEIQ[ACPC]MHNLGKHLNSMERVEWLRKKLQDVHNF-NH2 [ACPC(7) PTH(1-34)]
delNT PTHR1
  Fold PTH: 74 fold
  cAMP EC50: 4600 nM
[21]
  Fold PTH: 1.3 fold
  cAMP EC50: 0.12 nM
[22]
  cAMP response PTH1R/PTH2R: 44 ratio

## AVSEHQLLHDKGK[ACPC]IQD[ACPC]RRR[APC]FLH[APC]LIA[ACPC]IHT[ACPC]-NH2 [CycD6 hPTHrP(1-34)]
[1]
  cAMP EC50: 0.65 nM
